Source: patent US6890516

Molecular target: Drosophila nitric oxide synthase (DNOS) (Drosophila) (UniProt Q27571)
Experiment: cell-based or functional assay

Drosophila nitric oxide synthase (DNOS) (Drosophila), sequence (Q27571 other isoform, or with tags, fused parts or gaps limits assumed): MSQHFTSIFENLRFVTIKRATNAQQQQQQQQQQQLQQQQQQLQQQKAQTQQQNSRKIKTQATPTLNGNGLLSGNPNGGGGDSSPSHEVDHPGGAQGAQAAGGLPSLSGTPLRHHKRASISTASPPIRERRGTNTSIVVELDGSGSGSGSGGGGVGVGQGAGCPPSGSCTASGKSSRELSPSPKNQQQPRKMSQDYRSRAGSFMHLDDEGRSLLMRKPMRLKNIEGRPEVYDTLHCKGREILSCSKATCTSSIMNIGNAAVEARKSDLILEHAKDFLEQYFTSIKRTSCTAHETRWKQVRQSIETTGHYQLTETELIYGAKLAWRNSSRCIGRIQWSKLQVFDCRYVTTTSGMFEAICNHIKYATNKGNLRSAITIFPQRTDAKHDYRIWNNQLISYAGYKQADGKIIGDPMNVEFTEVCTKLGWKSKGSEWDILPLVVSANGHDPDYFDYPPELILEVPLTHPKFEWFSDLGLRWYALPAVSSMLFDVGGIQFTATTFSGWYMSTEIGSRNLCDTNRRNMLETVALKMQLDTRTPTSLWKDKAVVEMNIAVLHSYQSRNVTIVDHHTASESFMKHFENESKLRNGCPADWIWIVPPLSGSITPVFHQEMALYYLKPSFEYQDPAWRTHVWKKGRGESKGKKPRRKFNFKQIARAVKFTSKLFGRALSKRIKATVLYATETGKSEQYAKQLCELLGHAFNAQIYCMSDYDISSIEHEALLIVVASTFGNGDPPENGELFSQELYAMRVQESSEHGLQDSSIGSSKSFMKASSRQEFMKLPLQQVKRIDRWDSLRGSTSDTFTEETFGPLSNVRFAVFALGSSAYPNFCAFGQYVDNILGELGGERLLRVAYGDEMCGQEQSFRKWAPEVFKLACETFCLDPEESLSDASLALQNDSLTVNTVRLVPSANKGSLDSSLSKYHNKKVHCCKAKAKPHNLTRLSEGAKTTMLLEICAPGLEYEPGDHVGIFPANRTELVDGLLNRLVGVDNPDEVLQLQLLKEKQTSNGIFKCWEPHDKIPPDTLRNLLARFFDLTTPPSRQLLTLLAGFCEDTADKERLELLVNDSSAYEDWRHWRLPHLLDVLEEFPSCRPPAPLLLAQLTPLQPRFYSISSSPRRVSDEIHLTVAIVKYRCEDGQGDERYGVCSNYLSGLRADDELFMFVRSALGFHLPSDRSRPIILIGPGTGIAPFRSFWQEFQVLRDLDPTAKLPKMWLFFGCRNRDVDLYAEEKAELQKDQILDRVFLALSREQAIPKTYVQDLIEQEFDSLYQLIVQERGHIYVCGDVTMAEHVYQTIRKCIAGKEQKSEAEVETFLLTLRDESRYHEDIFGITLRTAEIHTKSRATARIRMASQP

calmodulin showed an NO synthase activity (L-arginine to L-citrulline conversion, 293 cell extracts, with exogenous Ca2+ and calmodulin) of 0.128 pmol/mg/min, an NO synthase activity with 500 µM W5, a calmodulin antagonist of 0.0222 pmol/mg/min and an NO synthase activity with 500 µM W5, a calmodulin antagonist (% of activity) of 18. It also gave an NO synthase activity with 1 mM EGTA, without exogenous Ca2+ or calmodulin of 90 % reduction.
